From publication PMC7611084 (Chemical communications (Cambridge, England), 2020)

What was measured:
SpCID1 = target: T1, SpCID1 (Schizosaccharomyces pombe, UniProt O13833); test: fluorescence titration; type: binding
T1 sequence (O13833 1-405): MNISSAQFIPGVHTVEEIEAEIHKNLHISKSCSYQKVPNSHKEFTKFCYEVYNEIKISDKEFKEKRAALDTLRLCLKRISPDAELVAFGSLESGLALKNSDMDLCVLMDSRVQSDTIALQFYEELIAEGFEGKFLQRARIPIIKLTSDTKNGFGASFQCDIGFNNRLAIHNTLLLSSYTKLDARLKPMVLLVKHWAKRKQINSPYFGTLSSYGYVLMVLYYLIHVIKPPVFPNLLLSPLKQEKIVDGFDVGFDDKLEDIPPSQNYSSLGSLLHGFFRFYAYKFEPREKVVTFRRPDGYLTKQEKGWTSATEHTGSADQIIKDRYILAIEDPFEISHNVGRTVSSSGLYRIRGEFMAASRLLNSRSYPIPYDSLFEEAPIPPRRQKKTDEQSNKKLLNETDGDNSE

[1] = target: T2, SpCID1 (caffeine-induced death suppressor 1, terminal uridylyl transferase) (Schizosaccharomyces pombe, UniProt O13833 1-405); test: fluorescence titration
T2 sequence: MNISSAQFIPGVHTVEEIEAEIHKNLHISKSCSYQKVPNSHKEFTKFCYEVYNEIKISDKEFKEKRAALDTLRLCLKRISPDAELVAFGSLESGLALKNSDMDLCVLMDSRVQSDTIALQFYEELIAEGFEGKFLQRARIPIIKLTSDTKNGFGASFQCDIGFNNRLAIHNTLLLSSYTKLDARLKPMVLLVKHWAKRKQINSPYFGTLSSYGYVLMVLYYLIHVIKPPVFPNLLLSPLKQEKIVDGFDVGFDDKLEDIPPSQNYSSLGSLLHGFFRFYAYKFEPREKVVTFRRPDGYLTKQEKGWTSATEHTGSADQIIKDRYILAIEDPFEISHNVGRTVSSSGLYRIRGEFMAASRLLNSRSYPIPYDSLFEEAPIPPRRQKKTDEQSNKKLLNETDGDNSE

[2] = target: T2, SpCID1 (caffeine-induced death …); test: EMSA

O=c1[nH]c(=O)n([C@@H]2O[C@H](COP(=O)(O)OP(=O)(O)OP(=O)(O)O)[C@@H](O)[C@H]2O)cc1-c1cc2ccccc2o1 [compound 2, BFUTP]
Kd (SpCID1): 180 ± 40 nM

UUACCAUAGAAUCAUGUGCCAUACAUCAU (ssRNA, 3'-terminal U (position 29) is 5-benzofuran-uridine (BFU)) [4BFU]
Kd [1]: 520 ± 40 nM

UUACCAUAGAAUCAUGUGCCAUACAUCAU (ssRNA, 3'-terminal U (position 29) is 5-benzofuran-uridine (BFU)) [3BFU]
Kd [2]: ~5400 nM
